In US20080057492A1, “Interacting site for gp41 on gp120 of hiv-1” (priority 2002, published 2008) one finds fifty percent neutralization concentration (pseudotyped virus) data, which are given here for 3 substances.

Experiment in all cases: cell-based or functional assay
Test [1] deals with Chimera P/7CD4bs envelope glycoprotein.
In test [2] the target is Chimera P/7CD4bs/V3 envelope glycoprotein.
Test [3] addresses MN-P envelope glycoprotein (neutralization resistant primary clone of the HIV-1 MN strain) (HIV-1 MN strain) (UniProt P05877).

monoclonal antibody 4.8d: the figures for the fifty percent neutralization concentration (pseudotyped virus) in test [1], in test [2] and in test [3] were 60 ng/mL, 20 ng/mL and more than 2.5 µg/mL, respectively.
For monoclonal antibody 19b, the fifty percent neutralization concentration (pseudotyped virus) was 60 ng/mL in test [1], 16 ng/mL in test [2] and more than 2.5 µg/mL in test [3].
For monoclonal antibody 17b the same measures were 480 ng/mL, 210 ng/mL and more than 2.5 µg/mL.
